The numbers were not newly measured in article PMC11121562, which cites them from elsewhere.

The target in this data set is Cyclin C (Homo sapiens) (UniProt P24863).
Sequence of UniProt P24863 (P24863 whole entry): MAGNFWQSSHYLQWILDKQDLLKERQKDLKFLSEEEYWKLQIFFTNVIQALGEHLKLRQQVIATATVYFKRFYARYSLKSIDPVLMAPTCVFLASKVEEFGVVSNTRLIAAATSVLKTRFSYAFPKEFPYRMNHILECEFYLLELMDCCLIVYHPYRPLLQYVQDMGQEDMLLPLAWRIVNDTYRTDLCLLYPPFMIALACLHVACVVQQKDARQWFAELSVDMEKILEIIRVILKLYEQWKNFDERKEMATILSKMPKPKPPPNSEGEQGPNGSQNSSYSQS

The Kd is the free concentration of one partner at which half of the binding sites on the other are occupied at equilibrium, for simple one-to-one binding. In the case of CDK8 (from UniProt P49336), the Kd is 7.05 nM.
